Test results: article PMC3185932, “A truncated form of CD9-partner 1 (CD9P-1), GS-168AT2, potently inhibits in vivo tumour-induced angiogenesis and tumour growth” (British Journal of Cancer, 2011)

Target: the molecule itself
Experiment: SDS-PAGE (Coomassie blue) and Western blot of the purified protein; purified GS-168AT2; 36 kDa band seen by Coomassie blue and recognised by 229T mAb

B1: GS-168AT2, truncated form of CD9 partner-1 (CD9P-1), amino acid 724-832 (domain or fragment, human, UniProt Q9P2B2 724-832, looked up)
chain: DMAFDVSWFAVHSFGLDKAPVLLSSLDRKGIVTTSRRDWKSDLSLERVSVLEFLLQVHGSEDQDFGNYYCSVTPWVKSPTGSWQKEAEIHSKPVFITVKMDVLNAFKYP
notes: CD9 partner-1 (CD9P-1/FPRP/EWI-F), human, amino acid 724-832: the unglycosylated extracellular portion next to the transmembrane domain; cDNA from RNA of human endothelial cells; no removal of the tag is described. pET-30 EK/LIC is known to add His and S tags at the N-terminus (surmised); also called truncated CD9P-1; source: E. coli BL21(DE3)pLys, purified from the insoluble fraction in urea …
B1: binds.
